Test results taken from paper doi:10.1101/2024.09.22.614354 (bioRxiv, 2024).
Where two headings read alike, the source gives them in different places. Where no end group is shown, it is not given here. TMR = tetramethyl rhodamine dye

T1: TMR-E2F1^TD (peptide of the E2F1 transactivation domain, N-labeled with tetramethyl rhodamine)
T1 peptide: {TMR}-GEGIRDLFDCDFGDLTPLD

B1: Rb^P E533K (domain or fragment)
chain: NTIQQLMMILNSASDQPSENLISYFNNCTVNPKESILKRVKDIGYIFKEKFAKAVGQGCVEIGSQRYKLGVRLYYRVMESMLKSEEERLSIQNFSKLLNDNIFHMSLLACALEVVMATYSRSTSQNLDSGTDLSFPWILNVLNLKAFDFYKVIKSFIKAEGNLTREMIKHLERCEHRIMESLAWLSDSPLFDLIKQSKDREGPTDHLESACPLNLPLQNNHTAADMYLSPVRSPKKKGSTTRVNSTANAETQATSAFQTQKPLKSTSLSLFYKKVYRLAYLRLNTLCERLLSEHPELEHIIWTLFQHTLQNEYELMRDRHLDQIMMCSMYGICKVKNIDLKFKIIVTAYKDLPHAVQETFKRVLIKEEEYDSIIVFYNSVFMQRLKTNILQYASTRPPTLSPIPHIPRS
B2: Rb^P S474I (domain or fragment)
chain: NTIQQLMMILNSASDQPSENLISYFNNCTVNPKESILKRVKDIGYIFKEKFAKAVGQGCVEIGSQRYKLGVRLYYRVMESMLKSEEERLSIQNFIKLLNDNIFHMSLLACALEVVMATYSRSTSQNLDSGTDLSFPWILNVLNLKAFDFYKVIESFIKAEGNLTREMIKHLERCEHRIMESLAWLSDSPLFDLIKQSKDREGPTDHLESACPLNLPLQNNHTAADMYLSPVRSPKKKGSTTRVNSTANAETQATSAFQTQKPLKSTSLSLFYKKVYRLAYLRLNTLCERLLSEHPELEHIIWTLFQHTLQNEYELMRDRHLDQIMMCSMYGICKVKNIDLKFKIIVTAYKDLPHAVQETFKRVLIKEEEYDSIIVFYNSVFMQRLKTNILQYASTRPPTLSPIPHIPRS
B3: Rb^P K548N (domain or fragment)
chain: NTIQQLMMILNSASDQPSENLISYFNNCTVNPKESILKRVKDIGYIFKEKFAKAVGQGCVEIGSQRYKLGVRLYYRVMESMLKSEEERLSIQNFSKLLNDNIFHMSLLACALEVVMATYSRSTSQNLDSGTDLSFPWILNVLNLKAFDFYKVIESFIKAEGNLTREMINHLERCEHRIMESLAWLSDSPLFDLIKQSKDREGPTDHLESACPLNLPLQNNHTAADMYLSPVRSPKKKGSTTRVNSTANAETQATSAFQTQKPLKSTSLSLFYKKVYRLAYLRLNTLCERLLSEHPELEHIIWTLFQHTLQNEYELMRDRHLDQIMMCSMYGICKVKNIDLKFKIIVTAYKDLPHAVQETFKRVLIKEEEYDSIIVFYNSVFMQRLKTNILQYASTRPPTLSPIPHIPRS
B4: Rb^P S474R (domain or fragment)
chain: NTIQQLMMILNSASDQPSENLISYFNNCTVNPKESILKRVKDIGYIFKEKFAKAVGQGCVEIGSQRYKLGVRLYYRVMESMLKSEEERLSIQNFRKLLNDNIFHMSLLACALEVVMATYSRSTSQNLDSGTDLSFPWILNVLNLKAFDFYKVIESFIKAEGNLTREMIKHLERCEHRIMESLAWLSDSPLFDLIKQSKDREGPTDHLESACPLNLPLQNNHTAADMYLSPVRSPKKKGSTTRVNSTANAETQATSAFQTQKPLKSTSLSLFYKKVYRLAYLRLNTLCERLLSEHPELEHIIWTLFQHTLQNEYELMRDRHLDQIMMCSMYGICKVKNIDLKFKIIVTAYKDLPHAVQETFKRVLIKEEEYDSIIVFYNSVFMQRLKTNILQYASTRPPTLSPIPHIPRS
B5: Rb^P S534R (domain or fragment)
chain: NTIQQLMMILNSASDQPSENLISYFNNCTVNPKESILKRVKDIGYIFKEKFAKAVGQGCVEIGSQRYKLGVRLYYRVMESMLKSEEERLSIQNFSKLLNDNIFHMSLLACALEVVMATYSRSTSQNLDSGTDLSFPWILNVLNLKAFDFYKVIERFIKAEGNLTREMIKHLERCEHRIMESLAWLSDSPLFDLIKQSKDREGPTDHLESACPLNLPLQNNHTAADMYLSPVRSPKKKGSTTRVNSTANAETQATSAFQTQKPLKSTSLSLFYKKVYRLAYLRLNTLCERLLSEHPELEHIIWTLFQHTLQNEYELMRDRHLDQIMMCSMYGICKVKNIDLKFKIIVTAYKDLPHAVQETFKRVLIKEEEYDSIIVFYNSVFMQRLKTNILQYASTRPPTLSPIPHIPRS
B6: Rb^P R656Q (domain or fragment)
chain: NTIQQLMMILNSASDQPSENLISYFNNCTVNPKESILKRVKDIGYIFKEKFAKAVGQGCVEIGSQRYKLGVRLYYRVMESMLKSEEERLSIQNFSKLLNDNIFHMSLLACALEVVMATYSRSTSQNLDSGTDLSFPWILNVLNLKAFDFYKVIESFIKAEGNLTREMIKHLERCEHRIMESLAWLSDSPLFDLIKQSKDREGPTDHLESACPLNLPLQNNHTAADMYLSPVRSPKKKGSTTRVNSTANAETQATSAFQTQKPLKSTSLSLFYKKVYQLAYLRLNTLCERLLSEHPELEHIIWTLFQHTLQNEYELMRDRHLDQIMMCSMYGICKVKNIDLKFKIIVTAYKDLPHAVQETFKRVLIKEEEYDSIIVFYNSVFMQRLKTNILQYASTRPPTLSPIPHIPRS
B7: Rb^P K530I (domain or fragment)
chain: NTIQQLMMILNSASDQPSENLISYFNNCTVNPKESILKRVKDIGYIFKEKFAKAVGQGCVEIGSQRYKLGVRLYYRVMESMLKSEEERLSIQNFSKLLNDNIFHMSLLACALEVVMATYSRSTSQNLDSGTDLSFPWILNVLNLKAFDFYIVIESFIKAEGNLTREMIKHLERCEHRIMESLAWLSDSPLFDLIKQSKDREGPTDHLESACPLNLPLQNNHTAADMYLSPVRSPKKKGSTTRVNSTANAETQATSAFQTQKPLKSTSLSLFYKKVYRLAYLRLNTLCERLLSEHPELEHIIWTLFQHTLQNEYELMRDRHLDQIMMCSMYGICKVKNIDLKFKIIVTAYKDLPHAVQETFKRVLIKEEEYDSIIVFYNSVFMQRLKTNILQYASTRPPTLSPIPHIPRS
B8: Rb^P I703F (domain or fragment)
chain: NTIQQLMMILNSASDQPSENLISYFNNCTVNPKESILKRVKDIGYIFKEKFAKAVGQGCVEIGSQRYKLGVRLYYRVMESMLKSEEERLSIQNFSKLLNDNIFHMSLLACALEVVMATYSRSTSQNLDSGTDLSFPWILNVLNLKAFDFYKVIESFIKAEGNLTREMIKHLERCEHRIMESLAWLSDSPLFDLIKQSKDREGPTDHLESACPLNLPLQNNHTAADMYLSPVRSPKKKGSTTRVNSTANAETQATSAFQTQKPLKSTSLSLFYKKVYRLAYLRLNTLCERLLSEHPELEHIIWTLFQHTLQNEYELMRDRHLDQFMMCSMYGICKVKNIDLKFKIIVTAYKDLPHAVQETFKRVLIKEEEYDSIIVFYNSVFMQRLKTNILQYASTRPPTLSPIPHIPRS
B9: Rb^P H555Y (domain or fragment)
chain: NTIQQLMMILNSASDQPSENLISYFNNCTVNPKESILKRVKDIGYIFKEKFAKAVGQGCVEIGSQRYKLGVRLYYRVMESMLKSEEERLSIQNFSKLLNDNIFHMSLLACALEVVMATYSRSTSQNLDSGTDLSFPWILNVLNLKAFDFYKVIESFIKAEGNLTREMIKHLERCEYRIMESLAWLSDSPLFDLIKQSKDREGPTDHLESACPLNLPLQNNHTAADMYLSPVRSPKKKGSTTRVNSTANAETQATSAFQTQKPLKSTSLSLFYKKVYRLAYLRLNTLCERLLSEHPELEHIIWTLFQHTLQNEYELMRDRHLDQIMMCSMYGICKVKNIDLKFKIIVTAYKDLPHAVQETFKRVLIKEEEYDSIIVFYNSVFMQRLKTNILQYASTRPPTLSPIPHIPRS

Assays:
Assay in all cases: fluorescence polarisation
[1] = target: TMR-E2F1^TD (peptide of the E2F1 transactivation domain, N-labeled with tetramethyl rhodamine)
[2] = target: T1, TMR-E2F1^TD (peptide of the E2F1 …)
[3] = target: T1, TMR-E2F1^TD (peptide of the E2F1 …)

Molecule	fold weaker binding relative to wild type [2] [fold]	also measured
Rb^P E544K (from UniProt P06400 380-788) (domain or fragment)		fold weaker binding relative to wild type [1]: 34 fold
B1	59	
B2	27	
B3	10	
B4	27	
B5	820	
B6	13	
B7	63	
B8	~5	fold weaker binding at 37°C than at 25°C [3]: 6 fold; fold weaker binding relative to wild type [3]: 17 fold
B9	12	
